Test results published in US20200147120A1 (NATIONAL UNIVERSITY CORPORATION CHIBA UNIVERSITY, published 2020).

Tests used:
Brm = target: T1, Brm (human, UniProt P51531 1-1590, limits assumed); assay: binding test of DPF2 truncation mutants; format not described
T1 construct: also called hBRM

BRG1 = BRG1 (human, UniProt P51532 1-1647); assay: as above
Sequence of BRG1 (P51532 whole entry): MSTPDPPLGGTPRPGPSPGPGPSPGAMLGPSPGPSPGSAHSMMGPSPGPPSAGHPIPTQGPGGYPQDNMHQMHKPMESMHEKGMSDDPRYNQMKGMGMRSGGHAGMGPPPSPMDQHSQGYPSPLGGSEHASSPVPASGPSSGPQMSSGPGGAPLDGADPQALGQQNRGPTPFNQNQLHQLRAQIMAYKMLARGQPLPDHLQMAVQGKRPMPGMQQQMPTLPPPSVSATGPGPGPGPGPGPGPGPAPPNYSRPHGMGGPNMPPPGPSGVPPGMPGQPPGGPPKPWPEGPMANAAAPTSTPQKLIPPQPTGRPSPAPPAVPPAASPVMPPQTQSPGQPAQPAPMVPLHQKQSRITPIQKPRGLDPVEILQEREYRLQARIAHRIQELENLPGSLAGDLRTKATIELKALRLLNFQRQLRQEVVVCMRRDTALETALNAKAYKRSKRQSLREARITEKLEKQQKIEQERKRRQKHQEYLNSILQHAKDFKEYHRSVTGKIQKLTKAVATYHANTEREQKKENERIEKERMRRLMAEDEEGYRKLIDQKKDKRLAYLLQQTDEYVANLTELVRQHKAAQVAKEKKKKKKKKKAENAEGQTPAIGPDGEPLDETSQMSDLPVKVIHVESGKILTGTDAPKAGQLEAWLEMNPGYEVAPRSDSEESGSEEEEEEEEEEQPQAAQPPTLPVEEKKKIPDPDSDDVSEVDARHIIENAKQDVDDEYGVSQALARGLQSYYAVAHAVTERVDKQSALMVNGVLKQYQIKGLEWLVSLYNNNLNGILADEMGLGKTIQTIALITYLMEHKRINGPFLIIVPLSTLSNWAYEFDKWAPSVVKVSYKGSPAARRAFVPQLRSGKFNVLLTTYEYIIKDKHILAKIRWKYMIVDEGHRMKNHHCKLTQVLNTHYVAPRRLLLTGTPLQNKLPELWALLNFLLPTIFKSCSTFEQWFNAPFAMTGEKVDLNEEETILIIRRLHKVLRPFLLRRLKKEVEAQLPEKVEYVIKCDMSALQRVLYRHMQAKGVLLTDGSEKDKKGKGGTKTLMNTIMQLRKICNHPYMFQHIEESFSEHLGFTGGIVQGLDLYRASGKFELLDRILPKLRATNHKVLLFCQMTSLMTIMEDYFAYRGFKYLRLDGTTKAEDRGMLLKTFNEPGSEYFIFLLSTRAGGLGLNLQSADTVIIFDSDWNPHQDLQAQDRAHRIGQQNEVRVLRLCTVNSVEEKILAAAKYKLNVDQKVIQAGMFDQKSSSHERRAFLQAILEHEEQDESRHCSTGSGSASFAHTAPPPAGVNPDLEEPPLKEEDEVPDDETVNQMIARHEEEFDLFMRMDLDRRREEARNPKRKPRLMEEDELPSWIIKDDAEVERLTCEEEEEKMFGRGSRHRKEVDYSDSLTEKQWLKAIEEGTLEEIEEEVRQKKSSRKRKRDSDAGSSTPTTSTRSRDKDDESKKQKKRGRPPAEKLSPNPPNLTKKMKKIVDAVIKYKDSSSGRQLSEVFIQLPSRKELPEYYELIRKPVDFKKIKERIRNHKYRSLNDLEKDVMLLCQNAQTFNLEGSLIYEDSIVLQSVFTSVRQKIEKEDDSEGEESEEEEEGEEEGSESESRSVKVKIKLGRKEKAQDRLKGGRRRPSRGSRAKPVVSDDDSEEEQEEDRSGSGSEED

T1 sequence (P51531 whole entry, the tested form may be a part): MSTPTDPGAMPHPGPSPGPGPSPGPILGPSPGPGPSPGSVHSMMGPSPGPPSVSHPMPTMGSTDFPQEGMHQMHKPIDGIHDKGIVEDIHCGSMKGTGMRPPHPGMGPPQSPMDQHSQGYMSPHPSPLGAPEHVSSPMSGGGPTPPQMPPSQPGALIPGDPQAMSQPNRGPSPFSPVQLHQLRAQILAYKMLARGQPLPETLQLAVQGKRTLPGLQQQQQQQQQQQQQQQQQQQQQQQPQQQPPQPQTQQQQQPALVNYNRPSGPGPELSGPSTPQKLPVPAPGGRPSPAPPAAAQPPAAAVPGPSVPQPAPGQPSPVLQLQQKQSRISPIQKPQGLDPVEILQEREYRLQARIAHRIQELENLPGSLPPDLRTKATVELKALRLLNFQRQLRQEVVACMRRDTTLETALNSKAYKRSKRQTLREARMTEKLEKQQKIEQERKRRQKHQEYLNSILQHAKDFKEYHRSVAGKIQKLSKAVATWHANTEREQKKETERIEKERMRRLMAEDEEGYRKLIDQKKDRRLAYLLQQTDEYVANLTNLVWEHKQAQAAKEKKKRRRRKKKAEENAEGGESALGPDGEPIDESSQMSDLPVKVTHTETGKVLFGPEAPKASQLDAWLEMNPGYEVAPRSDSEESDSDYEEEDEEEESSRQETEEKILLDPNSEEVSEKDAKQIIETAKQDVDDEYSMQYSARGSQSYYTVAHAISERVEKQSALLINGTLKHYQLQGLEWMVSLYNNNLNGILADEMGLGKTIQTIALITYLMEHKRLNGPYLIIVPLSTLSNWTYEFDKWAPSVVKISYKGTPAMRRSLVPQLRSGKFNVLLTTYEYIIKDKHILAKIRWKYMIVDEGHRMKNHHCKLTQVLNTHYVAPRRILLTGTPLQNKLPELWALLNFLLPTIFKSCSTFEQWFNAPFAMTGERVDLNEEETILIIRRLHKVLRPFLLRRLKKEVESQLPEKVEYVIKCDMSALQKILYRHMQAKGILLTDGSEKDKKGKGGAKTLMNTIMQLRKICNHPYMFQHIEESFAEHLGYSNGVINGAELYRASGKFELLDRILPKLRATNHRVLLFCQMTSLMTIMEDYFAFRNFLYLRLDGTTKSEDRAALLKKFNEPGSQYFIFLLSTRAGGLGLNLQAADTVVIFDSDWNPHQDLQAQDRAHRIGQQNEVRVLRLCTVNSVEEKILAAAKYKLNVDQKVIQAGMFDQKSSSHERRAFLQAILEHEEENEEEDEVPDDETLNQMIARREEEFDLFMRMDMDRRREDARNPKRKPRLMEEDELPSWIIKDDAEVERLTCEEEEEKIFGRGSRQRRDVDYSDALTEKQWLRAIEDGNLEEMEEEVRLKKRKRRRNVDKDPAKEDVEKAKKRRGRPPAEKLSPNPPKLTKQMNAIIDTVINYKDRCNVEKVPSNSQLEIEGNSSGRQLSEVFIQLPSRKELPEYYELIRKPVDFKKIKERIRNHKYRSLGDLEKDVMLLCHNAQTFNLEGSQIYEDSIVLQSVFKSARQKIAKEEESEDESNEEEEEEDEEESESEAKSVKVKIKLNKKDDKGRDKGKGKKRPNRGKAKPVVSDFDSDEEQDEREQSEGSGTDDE

B1: DPF2-CT1 (CT1 peptide of DPF2, amino acid residues 1 to 84) (peptide)
peptide: MAAVVENVVKLLGEQYYKDAMEQCHNYNARLCAERSVRLPFLDSQTGVAQSNCYIWMEKRHRGPGLASGQLYSYPARRWRKKRR
notes: One of a series of truncation mutants of DPF2
Question: What does the source list for B1?
Answer: binding result (Brm): binds; binding result (BRG1): binds
